In patent US20240132546A1 (Molecular Partners, published 2024):

Legend:
[1] = target: T1, biotinylated full-length HER2 (human, UniProt P04626 23-652, limits assumed, biotinylated (site not stated)); assay: SPR, single trace, 500 nM analyte over biotinylated HER2 on the chip, double-referenced, 1:1 Langmuir fit [continued]
T1 construct: Immobilised on the SPR chip; also called bio-HER2; Human Epidermal Growth Factor Receptor 2
Excerpt: (§1) FIG. 4: Single-trace SPR profiles of DTPA-coupled DARPins (also referred to as constructs, see Table 7) against biotinylated full-length HER2. As reference, plots 1 and 2 show the profiles of the HER2-binding parental DARPin06 (SEQ ID NO: 6) and DARPin11 (SEQ ID NO: 11), respectively. Plots 3, 4, 5, 6 and 7 show the profiles of construct 6 (DARPin06-GSGSC-DTPA), construct 7 (DARPin07-GSGSC-DTPA), construct 8 (DARPin08-GSGSC-DTPA), construct 9 (DARPin09-GSGSC-DTPA) and construct 10 (DARPin10-GSGSC-DTPA), respectively. Plots 8 and 9 show construct 11 (DARPin11-GSGSC-DTPA) and construct 12 (DARPin12-GSGSC-DTPA), respectively. The GSGSC tag (SEQ ID NO: 14) was fused to the C-terminal end of the DARPins. All analytes (500 nM) were injected in succession for 120s, dissociation was recorded for 180s (25 ul/min of PBS-Tween20 (0.005%)). Each injection was followed by a regeneration step with glycine pH2.0 for 60s. The data was double referenced (control spot and buffer injection) and fitted to a 1:1 Langmuir model.
A surface plasmon resonance (SPR) assay was used to determine if the charge-engineered DARPin variants derived from the parental DARPin06 (SEQ ID NO: 6) and DARPin11 (SEQ ID NO: 11) could still bind to HER2. All SPR data were generated using a Bruker Sierra SPR-32 instrument with PBS-T (0.005% Tween 20) as running buffer. A new Bruker BTC Chip was conditioned according to the manufacturer's protocol. The chip was coated with biotinylated target (bio-HER2) to reach a signal intensity of approximatively 600 RU. All analytes (500 nM) were injected in succession for 120s, dissociation was recorded for 180s (25 ul/min). Each injection was followed by a regeneration step with glycine pH 2.0 for 60s. The data was double referenced (control spot and buffer injection) and fitted to a 1:1 Langmuir model. […] A DTPA coupled DARPin is also referred to as a “construct”. SPR curves are shown in FIG. 4 where plots 1 and 2 show the profiles of the HER2-binding parental DARPin06 and DARPin11 (SEQ ID NOs: 6 and 11, respectively).

[2] = target: T1, biotinylated full-length HER2; assay: SPR, single trace, 500 nM analyte over biotinylated HER2 on the chip, double-referenced, 1:1 Langmuir fit
Excerpt: as §1
A surface plasmon resonance (SPR) assay was used to determine if the charge-engineered DARPin variants derived from the parental DARPin06 (SEQ ID NO: 6) and DARPin11 (SEQ ID NO: 11) could still bind to HER2. […] All analytes (500 nM) were injected in succession for 120s, dissociation was recorded for 180s (25 ul/min). […]

[3] = target: T1, biotinylated full-length HER2; assay: SPR multi-trace, biotinylated HER2 on chip, analyte 0.617-50 nM, global 1:1 Langmuir fit
Excerpt: (§2) FIGS. 9A-9F: Multi-trace SPR profiles of DTPA-coupled DARPins (also referred to as constructs, see Tables 7 and 16) against biotinylated full-length HER2. FIGS. 9A, 9B, 9C, 9D, 9E, and 9F show the profiles of construct 6 (DARPin06-GSGSC-DTPA), construct 8 (DARPin08-GSGSC-DTPA), construct 13 (DARPin13-GSGSC-DTPA), construct 14 (DARPin14-GSGSC-DTPA), construct 15 (DARPin15-GSGSC-DTPA) and construct 16 (DARPin16-GSGSC-DTPA), respectively. The GSGSC tag (SEQ ID NO: 14) was fused to the C-terminal end of the DARPins. Three-fold dilutions of the analytes (50, 16.667, 5.556, 1.852 and 0.617 nM) were injected for 300s, dissociation was recorded for 1500s (25 ul/min). Each injection was followed by a regeneration step with glycine pH 2.0 for 60s. Dissociation constants (KD) were calculated from the globally fitted on- and off-rates using standard 1:1-Langmuir model (see Table 17).
(§3) Binding kinetics of the constructs to the target protein HER2 was measured in a multi-trace SPR assay. A new Xantec NAHLC200M chip was conditioned according to the manufacturer's protocol. The chip was coated with biotinylated target (bio-HER2, 10 ug/mL) for 900s to reach a signal intensity of approximately 1200-1300 RU. Three-fold dilutions of the analytes (50, 16.667, 5.556, 1.852 and 0.617 nM) were injected for 300s, dissociation was recorded for 1500s (25 ul/min). Each injection was followed by a regeneration step with glycine pH 2.0 for 60s. The signals (i.e. resonance unit (RU) values) of empty surface and a reference injection (i.e. injection of running buffer only) were subtracted from the RU traces obtained injecting the constructs (double-referencing). Dissociation constants (KD) were calculated from the globally fitted on- and off-rates using standard 1:1-Langmuir model.

[4] = target: T1, biotinylated full-length HER2; assay: as above; remark: listed apart in the source
Excerpt: as §2, §3

B1: DARPin12-GSGSC-DTPA (designed binder)
chain: DLGIQLLFAAAKGQLDTVRTLLQAGADVNAKDFQGVTPLHIAAQSGHLQIVEVLLQAGADVNAKDVTGDTPLHLAAQHGHLQIVTVLLQAGADVNAQDERGWTPADLAADWGNQQIAEVLQQAAGSGSC
modifications: maleimide-DTPA coupled to the C-terminal Cys of the GSGSC tag
notes: Charge variant of DARPin11; His-TEV tag cleaved off; possible N-terminal GS not included; also called construct 12
Kd [1]: 0.982 nM

B2: parental DARPin06 (designed binder)
chain: DLGKKLLEAARAGQDDEVRELLKAGADVNAKDEYGLTPLYLATAHGHLEIVEVLLKAGADVNAVDAIGFTPLHLAAFIGHLEIAEVLLKAGADVNAQDKFGKTPADIAAGAGNEDIAEVLQKAA
Kd [2]: 0.0575 nM

B3: DARPin11-GSGSC-DTPA (designed binder)
chain: DLGIKLLFAAAKGQDDEVRELLKAGADVNAKDFQGVTPLHIAAQSGHLEIVEVLLKAGADVNAKDVTGDTPLHLAAQHGHLEIVEVLLKAGADVNAQDERGWTPADLAADWGHEDIAEVLQKAAGSGSC
modifications: maleimide-DTPA coupled to the C-terminal Cys of the GSGSC tag
notes: Parent; His-TEV tag cleaved off; possible N-terminal GS not included; also called construct 11; DTPA coupled parental DARPin11
Kd [1]: 0.226 nM

B4: DARPin08-GSGSC-DTPA (designed binder)
chain: DLGTQLLRAAESGQLDEVRELLKAGADVNAQDEYGLTPLYLATAHGHLEIVTVLLEAGADVNAQDAIGFTPLHLAAFIGHLEIATVLLEAGADVNAQDKFGKTPADIAAGAGNEDIAEVLQKAAGSGSC
modifications: maleimide-DTPA coupled to the C-terminal Cys of the GSGSC tag
notes: Charge variant of DARPin06; His-TEV tag cleaved off; possible N-terminal GS not included; also called construct 8
Kd [1]: 0.583 nM | Kd [3]: 0.17 nM | koff [3]: 8.82e-05 s⁻¹ | kon [3]: 521000 M⁻¹ s⁻¹ | Kd [4]: < 1 nM

B5: DARPin13-GSGSC-DTPA (designed binder)
chain: DLGTQLLQAAESGQLDEVHDLLQAGADVNAQDEYGLTPLYLATAHGHLEIVTVLLEAGADVNAQDAIGFTPLHLAAFIGHLEIATVLLEAGADVNAQDKFGKTPADIAAGAGNEDIAEVLQKAAGSGSC
modifications: maleimide-DTPA coupled to the C-terminal Cys of the GSGSC tag
notes: Charge variant derived from DARPin06; His-TEV tag cleaved off; possible N-terminal GS not included; also called construct 13
Kd [3]: 0.357 nM | koff [3]: 0.000138 s⁻¹ | kon [3]: 386000 M⁻¹ s⁻¹ | Kd [4]: < 1 nM

B6: DARPin16-GSGSC-DTPA (designed binder)
chain: DLGTQLLEAAESGQLDEVRELLKAGADVNAQDEYGLTPLYLATAHGHLEIVTVLLEAGADVNAQDAIGFTPLHLAAFIGHLEIATVLLEAGADVNAQDKFGTTPADIAAGAGNEDIAEVLQKAAGSGSC
modifications: maleimide-DTPA coupled to the C-terminal Cys of the GSGSC tag
notes: Charge variant derived from DARPin06; His-TEV tag cleaved off; possible N-terminal GS not included; also called construct 16
Kd [3]: 0.615 nM | koff [3]: 0.00026 s⁻¹ | kon [3]: 422000 M⁻¹ s⁻¹ | Kd [4]: < 1 nM

B7: DARPin14-GSGSC-DTPA (designed binder)
chain: DLGTQLLEAAESGQLDEVRELLQAGADVNAQDEYGLTPLYLATAHGHLEIVTVLLEAGADVNAQDAIGFTPLHLAAFIGHLEIATVLLEAGADVNAQDKFGKTPADIAAGAGNEDIAEVLQKAAGSGSC
modifications: maleimide-DTPA coupled to the C-terminal Cys of the GSGSC tag
notes: Charge variant derived from DARPin06; His-TEV tag cleaved off; possible N-terminal GS not included; also called construct 14
Kd [3]: 0.23 nM | koff [3]: 0.000121 s⁻¹ | kon [3]: 524000 M⁻¹ s⁻¹ | Kd [4]: < 1 nM

B8: DARPin06-GSGSC-DTPA (designed binder)
chain: DLGKKLLEAARAGQDDEVRELLKAGADVNAKDEYGLTPLYLATAHGHLEIVEVLLKAGADVNAVDAIGFTPLHLAAFIGHLEIAEVLLKAGADVNAQDKFGKTPADIAAGAGNEDIAEVLQKAAGSGSC
modifications: maleimide-DTPA coupled to the C-terminal Cys of the GSGSC tag
notes: Parent; also called construct 6; DTPA coupled parental DARPin06
Kd [3]: 0.216 nM | koff [3]: 0.000141 s⁻¹ | kon [3]: 653000 M⁻¹ s⁻¹ | Kd [2]: 0.284 nM

B9: DARPin10-GSGSC-DTPA (designed binder)
chain: DLGTQLLQAAESGQLDTVRELLKAGADVNAQDEYGLTPLYLATAHGHLQIVRVLLQAGADVNAQDAIGFTPLHLAAFIGHLEIATVLLKAGADVNAQDKFGKTPADIAATAGNQQIASVLQKAAGSGSC
modifications: maleimide-DTPA coupled to the C-terminal Cys of the GSGSC tag
notes: Charge variant of DARPin06; His-TEV tag cleaved off; possible N-terminal GS not included; also called construct 10
Kd [1]: 0.622 nM

B10: DARPin15-GSGSC-DTPA (designed binder)
chain: DLGTQLLRAAESGQLDEVRELLKAGADVNAQDEYGLTPLYLATAHGHLEIVTVLLEAGADVNAQDAIGFTPLHLAAFIGHLEIATVLLEAGADVNAQDNFGTTPADIAAGAGNEDIAEVLQQAAGSGSC
modifications: maleimide-DTPA coupled to the C-terminal Cys of the GSGSC tag
notes: Charge variant derived from DARPin06; His-TEV tag cleaved off; possible N-terminal GS not included; also called construct 15
Kd [3]: 0.637 nM | koff [3]: 0.000214 s⁻¹ | kon [3]: 336000 M⁻¹ s⁻¹ | Kd [4]: < 1 nM

B11: DARPin07-GSGSC-DTPA (designed binder)
chain: DLGTQLLRAAESGQLDTVRTLLKAGADVNAKDEYGLTPLYLATAHGHLQIVRVLLQAGADVNAKDAIGFTPLHLAAFIGHLKIAEVLLKAGADVNAQDKFGKTPAQIAATAGNQQIASVLQKAAGSGSC
modifications: maleimide-DTPA coupled to the C-terminal Cys of the GSGSC tag
notes: Charge variant of DARPin06 (negative control for kidney uptake, higher pI); His-TEV tag cleaved off; possible N-terminal GS not included; also called construct 7
Kd [1]: 0.457 nM

B12: DARPin09-GSGSC-DTPA (designed binder)
chain: DLGTQLLQAAESGQLDTVRTLLKAGADVNAQDEYGLTPLYLATAHGHLQIVQVLLSAGADVNAQDAIGFTPLHLAAFIGHLQIAQVLLSAGADVNAQDKFGTTPAQIAATAGNQQIASVLQQAAGSGSC
modifications: maleimide-DTPA coupled to the C-terminal Cys of the GSGSC tag
notes: Charge variant of DARPin06; His-TEV tag cleaved off; possible N-terminal GS not included; also called construct 9
Kd [1]: 1.44 nM
